Results reported in patent US20210300999A1.

Experiments:
[1] = target: SARS-CoV S2Pecto (SARS-CoV) (UniProt P59594); assay: ELISA on coated antigen
[2] = target: recombinant receptor binding domain (RBD) of SARS-CoV-2 spike protein, residues 319-528, deglycosylated (SARS-CoV-2) (UniProt P0DTC2); assay: crystal structure RBD/COV2-2196/COV2-2130
[3] = target: recombinant receptor binding domain (RBD) of SARS-CoV-2 spike protein, residues 319-528, deglycosylated (SARS-CoV-2) (UniProt P0DTC2); assay: crystal structure RBD/COV2-2196

Chain of COV2-2196 Fab (recombinant, wt sequence) (VH): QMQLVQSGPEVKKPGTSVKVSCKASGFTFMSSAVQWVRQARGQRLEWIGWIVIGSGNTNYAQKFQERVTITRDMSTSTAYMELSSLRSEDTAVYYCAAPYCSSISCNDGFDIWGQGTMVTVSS
Chain of COV2-2196 Fab (recombinant, wt sequence) (VL): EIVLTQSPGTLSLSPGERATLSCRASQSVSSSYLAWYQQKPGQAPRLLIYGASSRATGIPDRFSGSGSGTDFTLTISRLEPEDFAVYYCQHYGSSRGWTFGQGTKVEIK

| Substance | EC50 [1] | also measured |
| --- | --- | --- |
| COV2-2094 (antibody) | 11.7 ng/mL |  |
| COV2-2196 Fab (recombinant, first two amino acids of the variable region mutated from QM to EV) |  | buried surface area of the interface [2]: 650 Å^2 |
| COV2-2196 Fab (recombinant, wt sequence) |  | buried surface area of the interface [3]: 650 Å^2 |
| rCR3022 (recombinant form of the cross-reactive SARS-CoV SRBD mAb CR3022) (antibody) | 5.2 ng/mL |  |
